Values quoted from earlier work, collected in publication PMC9709720, “An orally available small molecule that targets soluble TNF to deliver anti-TNF biologic-like efficacy in rheumatoid arthritis” (Frontiers in Pharmacology, 2022).

System: free soluble TNF in human synovial tissue
Parameters: method as in Tani et al. (2013)
Conditions: one third of reported steady state concentration, synovial fluid; ref Tani et al. (2013)

Substance	Css^f used in model [nM]
infliximab	17
etanercept	2.2
